# Laboratory results published in US20240052055A1.
# Tests used:
# [1] = biological target: human GPC3 (Gln25-His559)-His protein (Acro, Cat. No. GP3-H52H4) (human) (UniProt P51654); assay: ELISA; antibody 0.1 nM
# [2] = biological target: human GPC3 (Gln25-His559)-His protein (Acro, Cat. No. GP3-H52H4) (human) (UniProt P51654); assay: ELISA; antibody 0.1 nM; remark: listed apart in the source
# [3] = biological target: monkey GPC3-His protein (Acro, Cat. No. GP3-05225) (monkey) (UniProt A5A6P7); assay: ELISA; antibody 0.1 nM
# Sequence of UniProt A5A6P7 (A5A6P7 other isoform, or with tags, fused parts or gaps limits assumed): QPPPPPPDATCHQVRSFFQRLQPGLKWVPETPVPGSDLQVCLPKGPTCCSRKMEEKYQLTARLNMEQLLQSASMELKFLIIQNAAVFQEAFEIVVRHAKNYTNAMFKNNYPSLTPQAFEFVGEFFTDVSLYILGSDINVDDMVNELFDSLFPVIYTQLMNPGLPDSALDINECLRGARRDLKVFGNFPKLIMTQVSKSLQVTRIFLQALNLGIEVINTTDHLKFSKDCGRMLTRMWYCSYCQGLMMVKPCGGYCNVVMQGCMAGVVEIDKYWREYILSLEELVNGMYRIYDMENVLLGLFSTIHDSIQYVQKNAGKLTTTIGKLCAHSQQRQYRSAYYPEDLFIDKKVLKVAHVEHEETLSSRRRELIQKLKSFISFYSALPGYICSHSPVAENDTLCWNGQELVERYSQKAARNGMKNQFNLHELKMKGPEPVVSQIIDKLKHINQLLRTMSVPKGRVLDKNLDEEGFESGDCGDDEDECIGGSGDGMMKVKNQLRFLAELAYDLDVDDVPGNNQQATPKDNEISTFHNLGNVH
# [4] = biological target: human GPC3 on cells (HepG2 endogenous; CHO-K1 recombinant clones CHOK1-hGPC3.1C3, 2B5, 3E9) (human) (UniProt P51654); assay: FACS on CHOK1-hGPC3.1C3 cells
# [5] = biological target: mouse GPC3-His protein (Sino Biological, Cat. No. 50989-M08B) (mouse) (UniProt Q8CFZ4); assay: ELISA; antibody 0.01 nM
# Sequence of UniProt Q8CFZ4 (Q8CFZ4 25-558 limits assumed): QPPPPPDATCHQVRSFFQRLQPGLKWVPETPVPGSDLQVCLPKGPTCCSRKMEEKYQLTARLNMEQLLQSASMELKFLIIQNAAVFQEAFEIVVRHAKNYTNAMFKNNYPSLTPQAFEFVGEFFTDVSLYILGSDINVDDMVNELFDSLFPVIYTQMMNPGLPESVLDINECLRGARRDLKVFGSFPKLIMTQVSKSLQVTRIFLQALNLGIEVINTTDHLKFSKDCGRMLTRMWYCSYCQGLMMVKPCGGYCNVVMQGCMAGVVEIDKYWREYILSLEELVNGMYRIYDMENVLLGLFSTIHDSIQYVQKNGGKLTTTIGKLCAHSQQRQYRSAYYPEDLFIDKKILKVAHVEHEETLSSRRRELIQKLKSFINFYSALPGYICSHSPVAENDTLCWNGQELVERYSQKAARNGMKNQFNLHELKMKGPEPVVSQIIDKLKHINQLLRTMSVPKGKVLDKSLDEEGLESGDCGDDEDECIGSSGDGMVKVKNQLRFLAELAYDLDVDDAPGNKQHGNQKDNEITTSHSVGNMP
# [6] = biological target: human GPC3 (Gln25-His559)-His protein (Acro, Cat. No. GP3-H52H4) (human) (UniProt P51654); assay: ELISA; antibody 0.01 nM
# [7] = biological target: monkey GPC3 on HEK293T cells (monkey); assay: FACS on HEK293T-monkey GPC3 cells
# Sequence of monkey GPC3 on HEK293T cells (monkey) (chain, as listed by the source limits assumed): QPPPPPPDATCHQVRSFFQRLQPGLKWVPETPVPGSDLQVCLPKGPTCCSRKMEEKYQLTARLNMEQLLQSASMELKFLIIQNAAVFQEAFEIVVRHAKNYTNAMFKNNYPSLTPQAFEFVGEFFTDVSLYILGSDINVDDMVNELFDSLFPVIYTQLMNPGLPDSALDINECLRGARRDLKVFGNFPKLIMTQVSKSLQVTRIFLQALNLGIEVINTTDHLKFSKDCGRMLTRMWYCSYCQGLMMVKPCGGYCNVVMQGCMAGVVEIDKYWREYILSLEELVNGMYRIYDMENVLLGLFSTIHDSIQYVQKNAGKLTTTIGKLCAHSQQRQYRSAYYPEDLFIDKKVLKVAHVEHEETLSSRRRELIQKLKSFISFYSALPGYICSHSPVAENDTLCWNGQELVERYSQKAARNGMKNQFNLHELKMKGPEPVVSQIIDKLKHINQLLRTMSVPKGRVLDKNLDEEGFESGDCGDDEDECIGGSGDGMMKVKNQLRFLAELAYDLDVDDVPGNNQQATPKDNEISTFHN
# [8] = biological target: human GPC3 on cells (HepG2 endogenous; CHO-K1 recombinant clones CHOK1-hGPC3.1C3, 2B5, 3E9) (human) (UniProt P51654); assay: FACS on HepG2 cells
# [9] = biological target: human GPC3 (Gln25-His559)-His protein (Acro, Cat. No. GP3-H52H4) (human) (UniProt P51654); assay: ELISA; antibody 0.0001 nM
# [10] = biological target: human GPC3 on cells (HepG2 endogenous; CHO-K1 recombinant clones CHOK1-hGPC3.1C3, 2B5, 3E9) (human) (UniProt P51654); assay: FACS on CHOK1-hGPC3.2B5 cells
# [11] = biological target: human GPC3 on cells (HepG2 endogenous; CHO-K1 recombinant clones CHOK1-hGPC3.1C3, 2B5, 3E9) (human) (UniProt P51654); assay: FACS on CHOK1-hGPC3.3E9 cells
# [12] = biological target: mouse GPC3-His protein (Sino Biological, Cat. No. 50989-M08B) (mouse) (UniProt Q8CFZ4); assay: ELISA; antibody 10 nM
# [13] = biological target: human GPC3 (Gln25-His559)-His protein (Acro, Cat. No. GP3-H52H4) (human) (UniProt P51654); assay: ELISA; antibody 10 nM
# [14] = biological target: monkey GPC3-His protein (Acro, Cat. No. GP3-05225) (monkey) (UniProt A5A6P7); assay: ELISA; antibody 10 nM
# [15] = biological target: mouse GPC3-His protein (Sino Biological, Cat. No. 50989-M08B) (mouse) (UniProt Q8CFZ4); assay: ELISA; antibody 1 nM
# [16] = biological target: human GPC3 (Gln25-His559)-His protein (Acro, Cat. No. GP3-H52H4) (human) (UniProt P51654); assay: ELISA; antibody 1 nM
# [17] = biological target: monkey GPC3-His protein (Acro, Cat. No. GP3-05225) (monkey) (UniProt A5A6P7); assay: ELISA; antibody 1 nM
# [18] = biological target: human GPC3 (Gln25-His559)-His protein (Acro, Cat. No. GP3-H52H4) (human) (UniProt P51654); assay: ELISA; antibody 100 nM
# [19] = biological target: human GPC3 (Gln25-His559)-His protein (Acro, Cat. No. GP3-H52H4) (human) (UniProt P51654); assay: ELISA; antibody 0.001 nM
# [20] = biological target: mouse GPC3-His protein (Sino Biological, Cat. No. 50989-M08B) (mouse) (UniProt Q8CFZ4); assay: ELISA; antibody 100 nM
# [21] = biological target: human GPC3 (Gln25-His559)-His protein (Acro, Cat. No. GP3-H52H4) (human) (UniProt P51654); assay: ELISA; antibody 100 nM; remark: listed apart in the source
# [22] = biological target: monkey GPC3-His protein (Acro, Cat. No. GP3-05225) (monkey) (UniProt A5A6P7); assay: ELISA; antibody 100 nM
# [23] = biological target: human GPC3 on cells (HepG2 endogenous; CHO-K1 recombinant clones CHOK1-hGPC3.1C3, 2B5, 3E9) (human) (UniProt P51654); assay: FACS on HepG2 cells; remark: listed apart in the source
# [24] = biological target: human GPC3 (Gln25-His559)-His protein (Acro, Cat. No. GP3-H52H4) (human) (UniProt P51654); assay: ELISA; antibody 1 nM; remark: listed apart in the source
# [25] = biological target: human GPC3 on cells (HepG2 endogenous; CHO-K1 recombinant clones CHOK1-hGPC3.1C3, 2B5, 3E9) (human) (UniProt P51654); assay: FACS on CHO-K1-human GPC3 cells
# [26] = biological target: human GPC3 (Gln25-His559)-His protein (Acro, Cat. No. GP3-H52H4) (human) (UniProt P51654); assay: ELISA; antibody 10 nM; remark: listed apart in the source
# [27] = biological target: human GPC3 (Gln25-His559)-His protein (Acro, Cat. No. GP3-H52H4) (human) (UniProt P51654); assay: ELISA; antibody 0.01 nM; remark: listed apart in the source
# [28] = biological target: mouse GPC3-His protein (Sino Biological, Cat. No. 50989-M08B) (mouse) (UniProt Q8CFZ4); assay: ELISA; antibody 0.001 nM
# [29] = biological target: human GPC3 (Gln25-His559)-His protein (Acro, Cat. No. GP3-H52H4) (human) (UniProt P51654); assay: ELISA; antibody 0.001 nM; remark: listed apart in the source
# [30] = biological target: monkey GPC3-His protein (Acro, Cat. No. GP3-05225) (monkey) (UniProt A5A6P7); assay: ELISA; antibody 0.001 nM
# [31] = biological target: mouse GPC3-His protein (Sino Biological, Cat. No. 50989-M08B) (mouse) (UniProt Q8CFZ4); assay: ELISA; antibody 0.0001 nM
# [32] = biological target: human GPC3 (Gln25-His559)-His protein (Acro, Cat. No. GP3-H52H4) (human) (UniProt P51654); assay: ELISA; antibody 0.0001 nM; remark: listed apart in the source
# [33] = biological target: monkey GPC3-His protein (Acro, Cat. No. GP3-05225) (monkey) (UniProt A5A6P7); assay: ELISA; antibody 0.0001 nM
substance,measurement,setting,value
human IgG1 (IgG subtype control) (antibody),OD450,[1],0.05
same,OD450,[2],0.06
same,OD450,[3],0.045
same,Mean fluorescence density of cells,[4],19.3
same,OD450,[5],0.052
same,OD450,[6],0.06
same,Max MFI,[7],107
same,Max MFI,[8],124
same,OD450,[9],0.047
same,Mean fluorescence density of cells,[10],19.3
same,Mean fluorescence density of cells,[11],19.3
same,OD450,[12],0.055
same,OD450,[13],0.05
same,OD450,[14],0.047
same,OD450,[15],0.05
same,OD450,[16],0.048
same,OD450,[17],0.044
same,OD450,[18],0.44
same,OD450,[19],0.048
same,OD450,[20],0.105
same,OD450,[21],0.072
same,OD450,[22],0.056
same,Max MFI,[23],155
same,OD450,[24],0.06
same,Max MFI,[25],88
same,OD450,[26],0.1
same,OD450,[27],0.048
same,OD450,[28],0.051
same,OD450,[29],0.06
same,OD450,[30],0.044
same,OD450,[31],0.049
same,OD450,[32],0.06
same,OD450,[33],0.048
